Reference: PMC10570035
Where two headings read alike, the source gives them in different places. Values belong to the substance of their own block, whether it stands above or below them.

Legend:
[1] = target: 40S ribosomal subunit (rabbit reticulocyte lysate) (rabbit (endogenous in rabbit reticulocyte lysate)) (UniProt G1TM55)
[2] = target: 40S ribosomal subunit (rabbit reticulocyte lysate) (rabbit (endogenous in rabbit reticulocyte lysate)) (UniProt G1TM55); remark: listed apart in the source
[3] = target: 40S ribosomal subunit (rabbit reticulocyte lysate) (rabbit (endogenous in rabbit reticulocyte lysate)) (UniProt G1TM55); remark: listed apart in the source
[4] = target: 40S ribosomal subunit (rabbit reticulocyte lysate) (rabbit (endogenous in rabbit reticulocyte lysate)) (UniProt G1TM55); remark: listed apart in the source

Substance: MBP-eIF2A-His6-FLAG (from UniProt Q9BY44-1 1-585) (natural protein)
in vitro translation of CrPV IGR IRES nLuc mRNA in RRL, titration (0-3.4 μM); IC50 of inhibition of translation [1]: 630 nM
in vitro translation of EMCV IRES nLuc mRNA in RRL, titration (0-3.4 μM); IC50 of inhibition of translation [1]: 690 nM
in vitro translation of HCV IRES nLuc mRNA in RRL, titration (0-3.4 μM); IC50 of inhibition of translation [1]: 490 nM
in vitro translation of PV IRES nLuc mRNA in RRL, titration (0-3.4 μM); IC50 of inhibition of translation [1]: 840 nM
in vitro translation of nLuc mRNA in 20% RRL, titration of recombinant protein (0-3.4 μM); IC50 of inhibition of translation [2]: 370 nM

in vitro translation of nLuc mRNA in 20% RRL, titration of recombinant protein (0-3.4 μM); IC50 of inhibition of translation [3]: 190 nM
Substance: MBP-eIF2A-His6 (from UniProt Q9BY44-1 1-585) (natural protein)

in vitro translation of nLuc mRNA in 20% RRL, titration of recombinant protein (0-3.4 μM); IC50 of inhibition of translation [4]: 130 nM
Substance: tag-less eIF2A (from UniProt Q9BY44-1 1-585) (natural protein)
